These are literature values, as cited in patent US20230285262A1, “Skin Compositions and Uses” (Stemetrix, Inc., priority 2013, published 2023).

Some results are limits rather than exact numbers.

Series [1] has as its system erythropoiesis-stimulating response. Conditions: per mg of protein.
The mark [2] stands for this setting: commercial preparation judged 98% pure.

Regarding “EGF: human epidermal growth factor, commercial preparation judged 98% pure by PAGE and HPLC”, the ED50 in the series on balb/c 3T3 cells (setting [2]) was no more than 0.1 ng/mL. The specific activity in the series with balb/c 3T3 cells (corresponding to ED50) was ≥ 1×10^7 units/mg.
Take “TGFβ3: human transforming growth factor beta-3, commercial preparation judged 98% pure by PAGE and HPLC”: the “expected ED50” value with mouse HT-2 cells (setting [2]) is 0.05 ng/mL. Besides, the specific activity in the series with mouse HT-2 cells (corresponding to ED50) is reported as ≥ 2×10^7 units/mg.
Turning to “IGF-1: insulin-like growth factor-1, commercial preparation judged 98% pure by PAGE and HPLC”, the ED50 in the series with FDC-P1 cells (setting [2]) was 2.0 ng/mL. Further, in the series with FDC-P1 cells (corresponding to ED50), the specific activity was ≥ 5×10^5 units/mg.
In the case of “Human urinary EPO: isolated human urinary EPO, international reference standard for EPO assays”, the specific activity result in series [1] is recorded as “about 70,000 U/mg”.
